# Measured values reported in patent US20220177587A1, “METHODS AND USES OF VARIANT CD80 FUSION PROTEINS AND RELATED CONSTRUCTS” (Alpine Immune Sciences, Inc., priority 2018, published 2022).
# Like-named read-outs stand apart in the source and are kept apart here.
# Columns and labels:
# [1] = molecular target: PD-L1 (human) (UniProt Q9NZQ7); assay: flow cytometry, HEK293 cells transfected with full-length human PD-L1, PE anti-human Fc
# Target sequence in this assay (Q9NZQ7 19-290): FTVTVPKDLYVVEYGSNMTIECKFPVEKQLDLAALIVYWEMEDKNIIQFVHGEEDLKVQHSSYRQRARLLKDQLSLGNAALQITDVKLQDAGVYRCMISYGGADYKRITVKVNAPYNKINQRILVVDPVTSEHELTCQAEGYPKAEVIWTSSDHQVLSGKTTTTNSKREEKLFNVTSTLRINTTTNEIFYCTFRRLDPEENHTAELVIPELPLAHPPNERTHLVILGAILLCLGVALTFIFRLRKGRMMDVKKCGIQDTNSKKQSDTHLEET
# [2] = molecular target: PD-L1 (human) (UniProt Q9NZQ7); assay: flow cytometry, CHO cells expressing huPD-L1
# [3] = molecular target: CD28 (human) (UniProt P10747); assay: flow cytometry, Jurkat/IL2 reporter cells (CD28)
# [4] = molecular target: CD28 (human) (UniProt P10747)
# [5] = molecular target: PD-L1 (human) (UniProt Q9NZQ7)
# Target sequence in this assay (Q9NZQ7 19-290): as above
# [6] = molecular target: CD28 (human) (UniProt P10747); assay: flow cytometry, Jurkat cells (CD28)
# [7] = molecular target: human CTLA-4 (human) (UniProt P16410); assay: flow cytometry, CHO cells stably expressing CTLA4
# Sequence of human CTLA-4 (human) (P16410 36-223): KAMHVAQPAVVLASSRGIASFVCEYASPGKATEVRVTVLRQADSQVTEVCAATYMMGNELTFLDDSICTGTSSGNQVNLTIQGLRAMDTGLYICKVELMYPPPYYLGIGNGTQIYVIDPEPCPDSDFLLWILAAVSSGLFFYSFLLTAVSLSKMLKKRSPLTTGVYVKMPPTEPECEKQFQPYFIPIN
# [8] = molecular target: PD-L1 (human) (UniProt Q9NZQ7); assay: flow cytometry, CHO cells stably expressing PD-L1
# Target sequence in this assay (Q9NZQ7 19-290): as the sequence (Q9NZQ7 19-290) above
# [9] = molecular target: human CTLA-4 (human) (UniProt P16410); assay: flow cytometry, CHO/CTLA4 cells; MFI over CD80 WT IgV-Fc
# [10] = molecular target: PD-L1 (human) (UniProt Q9NZQ7); assay: flow cytometry, CHO/PD-L1 cells; MFI over CD80 WT IgV-Fc
# Target sequence in this assay (Q9NZQ7 19-290): as above
# [11] = molecular target: CD28 (human) (UniProt P10747); assay: flow cytometry, Jurkat cells (CD28); MFI over CD80 WT IgV-Fc
# [12] = molecular target: CD28 (human) (UniProt P10747); remark: listed apart in the source
# [13] = molecular target: CD28 (human) (UniProt P10747); remark: listed apart in the source
# [14] = molecular target: PD-L1 (human) (UniProt Q9NZQ7); remark: listed apart in the source
# Target sequence in this assay (Q9NZQ7 19-290): as above
# [15] = molecular target: CD28 (human) (UniProt P10747); assay: flow cytometry, Jurkat cells (CD28); remark: listed apart in the source
# [16] = molecular target: human CTLA-4 (human) (UniProt P16410); assay: flow cytometry, CHO cells stably expressing CTLA4; remark: listed apart in the source
# [17] = molecular target: PD-L1 (human) (UniProt Q9NZQ7); assay: flow cytometry, CHO cells stably expressing PD-L1; remark: listed apart in the source
# Target sequence in this assay (Q9NZQ7 19-290): as above
# [18] = molecular target: PD-L1 (human) (UniProt Q9NZQ7); assay: flow cytometry, MFI on CHO/PD-L1 over MFI on Jurkat (CD28)
# [19] = molecular target: CD28 (human) (UniProt P10747); remark: listed apart in the source
# [20] = molecular target: PD-L1 (human) (UniProt Q9NZQ7); remark: listed apart in the source
# [21] = molecular target: human CTLA-4 (human) (UniProt P16410); assay: flow cytometry, CHO cells expressing huCTLA4
# [22] = molecular target: PD-L1 (human) (UniProt Q9NZQ7); assay: flow cytometry, CHO cells expressing huPD-L1; remark: listed apart in the source
# [23] = molecular target: human CTLA-4 (human) (UniProt P16410); assay: flow cytometry, CHO cells expressing huCTLA-4
# [24] = molecular target: CD28 (human) (UniProt P10747); assay: flow cytometry, Jurkat/IL2 reporter cells (CD28); remark: listed apart in the source
# [25] = molecular target: PD-L1 (human) (UniProt Q9NZQ7); assay: flow cytometry, CHO/huPD-L1 cells; vs WT CD80 ECD-Fc (Abcam)
# [26] = molecular target: human CTLA-4 (human) (UniProt P16410); assay: flow cytometry, CHO/huCTLA-4 cells; vs WT CD80 ECD-Fc (Abcam)
# [27] = molecular target: PD-L1 (human) (UniProt Q9NZQ7); assay: flow cytometry, CHO cells expressing huPD-L1; remark: listed apart in the source
# [28] = molecular target: CD28 (human) (UniProt P10747); assay: flow cytometry, Jurkat/IL2 reporter cells (endogenous CD28)
# [29] = molecular target: CD28 (human) (UniProt P10747); remark: listed apart in the source
# [30] = molecular target: PD-L1 (human) (UniProt Q9NZQ7); remark: listed apart in the source
# [31] = molecular target: human CTLA-4 (human) (UniProt P16410); assay: flow cytometry, CHO cells expressing CTLA4
# [32] = molecular target: PD-L1 (human) (UniProt Q9NZQ7); assay: flow cytometry, CHO cells expressing PD-L1
# [33] = molecular target: PD-L1 (human) (UniProt Q9NZQ7); assay: flow cytometry, MFI on PD-L1 over MFI on CD28
substance,measurement,setting,value
variant CD80 IgV-Fc E35D/A71D (SEQ ID NO: 194) (Fc fusion),MFI at 22.2 nM,[1],13800 MFI
variant CD80 IgV-Fc E35D/M47I/Y87Q/K89E (Fc fusion),MFI at 33.3 nM,[2],29800 MFI
same,MFI at 33.3 nM,[3],15500 MFI
CD80 IgV-Fc V22D/E24D/E35D/M47L/V68M/L85M/D90G (Fc fusion),RLU at 5.0 nM: Fold Increase over WT CD80-IgV-Fc,[4],2.4 fold
same,RLU at 5.0 nM: Fold Increase over WT CD80-IgV-Fc,[5],2.4 fold
variant CD80 IgV-Fc Q33L/E35D/M43I/Y53F/T62S/L85Q (Fc fusion),MFI at 33.3 nM,[2],72100 MFI
same,MFI at 33.3 nM,[3],1024 MFI
variant CD80 IgV-Fc (inert) H18A/A26P/E35D/M47L/V68M/A71G/D90G (Fc fusion),MFI at 33.3 nM,[6],4730 MFI
same,MFI at 33.3 nM,[7],23800 MFI
same,MFI at 33.3 nM,[8],33400 MFI
same,Fold change to WT CD80,[9],17.2 fold
same,Fold change to WT CD80,[10],203 fold
same,Fold change to WT CD80,[11],46.4 fold
variant CD80 IgV-Fc E35D/A71D (SEQ ID NO 176) (Fc fusion),Fold increase in IL2 reporter signal (Jurkat/IL2 reporter assay) (fold vs WT CD80 IgV-Fc),[12],0.36
CD80 IgV-Fc H18Y/E35D/M47L/V68M/A71G/L85M (Fc fusion),RLU at 5.0 nM: Fold Increase over WT CD80-IgV-Fc,[13],5.5 fold
same,RLU at 5.0 nM: Fold Increase over WT CD80-IgV-Fc,[14],5.5 fold
same,Fold change to WT CD80,[15],69.1 fold
same,MFI at 33.3 nM,[15],2850 MFI
same,Fold change to WT CD80,[16],19.8 fold
same,MFI at 33.3 nM,[16],20700 MFI
same,Fold change to WT CD80,[17],140 fold
same,MFI at 33.3 nM,[17],9890 MFI
same,Ratio of PDL1:CD28,[18],3.5
CD80 V22A/E35D/M47L/A71G IgV-Fc (Fc fusion),"IL2-luciferase reporter (RLU), fold increase over WT CD80-IgV-Fc at 5.0 nM",[19],6.5 fold
same,"IL2-luciferase reporter (RLU), fold increase over WT CD80-IgV-Fc at 5.0 nM",[20],6.5 fold
variant CD80 IgV-Fc E35D/M47V/N48K/V68M/K89N (Fc fusion),MFI at 33.3 nM,[21],807 MFI
same,MFI at 33.3 nM,[2],89800 MFI
same,MFI at 33.3 nM,[22],14800 MFI
same,MFI at 33.3 nM,[23],20900 MFI
same,MFI at 33.3 nM,[3],11700 MFI
same,MFI at 33.3 nM,[24],1350 MFI
CD80 IgV-Fc H18Y/E35D/M38I/M47L/V68M/L85M (Fc fusion),RLU at 5.0 nM: Fold Increase over WT CD80-IgV-Fc,[4],0.5 fold
same,RLU at 5.0 nM: Fold Increase over WT CD80-IgV-Fc,[5],0.5 fold
variant CD80 IgV-Fc (inert) H18A/A26N/E35D/M47L/V68M/A71G/D90G (Fc fusion),MFI at 33.3 nM,[6],4910 MFI
same,MFI at 33.3 nM,[7],21400 MFI
same,MFI at 33.3 nM,[8],36300 MFI
same,Fold change to WT CD80,[9],15.4 fold
same,Fold change to WT CD80,[10],220 fold
same,Fold change to WT CD80,[11],48.2 fold
CD80 IgV-Fc H18Y/E35D/M47I/V68M/Y87N (Fc fusion),RLU at 5.0 nM: Fold Increase over WT CD80-IgV-Fc,[13],5.5 fold
same,RLU at 5.0 nM: Fold Increase over WT CD80-IgV-Fc,[14],5.5 fold
same,MFI at 33.3 nM,[15],1430 MFI
same,MFI at 33.3 nM,[16],19700 MFI
same,MFI at 33.3 nM,[17],9300 MFI
variant CD80 IgV-Fc D46V/M47L/L85Q (Fc fusion),MFI at 33.3 nM,[22],5980 MFI
same,MFI at 33.3 nM,[23],40200 MFI
same,MFI at 33.3 nM,[24],567 MFI
same,Fold change to WT CD80,[25],46.7 fold
same,Fold change to WT CD80,[26],1 fold
WT CD80 ECD-Fc (R&D) (Fc fusion),MFI at 33.3 nM,[27],7940 MFI
same,MFI at 33.3 nM,[2],11900 MFI
same,MFI at 33.3 nM,[3],18000 MFI
same,MFI at 33.3 nM,[28],7630 MFI
variant CD80 IgV-Fc (inert) H18Y/E35D/M47V/V68M/A71G/D90G (Fc fusion),"IL2-luciferase reporter, fold increase in RLU over WT CD80-IgV-Fc at 5.0 nM",[29],4.8 fold
same,"IL2-luciferase reporter, fold increase in RLU over WT CD80-IgV-Fc at 5.0 nM",[30],4.8 fold
same,MFI at 33.3 nM,[6],6790 MFI
same,MFI at 33.3 nM,[7],17200 MFI
same,MFI at 33.3 nM,[8],52200 MFI
same,Fold change to WT CD80,[9],12.4 fold
same,Fold change to WT CD80,[10],316 fold
same,Fold change to WT CD80,[11],66.6 fold
CD80 IgV-Fc T13R/Q33L/E35D/M47V/T62S/V68M/L85M (Fc fusion),RLU at 5.0 nM: Fold Increase over WT CD80-IgV-Fc,[4],0.3 fold
same,RLU at 5.0 nM: Fold Increase over WT CD80-IgV-Fc,[5],0.3 fold
CD80 H18Y/E35D/V68M/L85M/R94Q IgV-Fc (Fc fusion),Fold change to WT CD80,[6],0.4 fold
same,MFI at 33.3 nM,[6],14 MFI
same,Fold change to WT CD80,[31],11.3 fold
same,MFI at 33.3 nM,[31],19800 MFI
same,Fold change to WT CD80,[32],280 fold
same,MFI at 33.3 nM,[32],14400 MFI
same,Ratio of PDL1:CD28,[33],1040
